Numbering of substitutions follows the chain as printed.
B1: 172 (protein)
chain: LDNGLARTPTMGWLHWERFMCNLDCQEEPDSCISEKLFMEMAELMVSEGWKDAGYEYLCIDDCWMAPQRDSEGRLQADPQRFPHGIRQLANYVHSKGLKLGIYADVGNKTCAGFPGSFGYYDIDAQTFADWGVDLLKFDGCYCDSLENLADGYKHMSLALNRTGRSIVYSCEWPLYMWPFQKPNYTEIRQYCNHWRNFADIDDSWKSIKSILDWTSFNQERIVDVAGPGGWNDPDMLVIGNFGLSWNQQVTQMALWAIMAAPLFMSNDLRHISPQAKALLQDKDVIAINQDPLGKQGYQLRQGDNFEVWERPLSGLAWAVAMINRQEIGGPRSYTIAVASLGKGVACNPACFITQLLPVKRKLGFYEWTSRLRSHINPTGTVLLQLENTMQMHKDLLL
modifications: Synthetic Polypeptide sequence of Variant No. 172 of mature Human GLA
B2: 173 (protein)
chain: B1 chain with H393P
modifications: Synthetic Polypeptide sequence of Variant No. 173 of mature Human GLA
B3: 174 (protein)
chain: B1 chain with S47I, H393S
modifications: Synthetic Polypeptide sequence of Variant No. 174 of mature Human GLA
B4: 175 (protein)
chain: B1 chain with S47R, H393S
modifications: Synthetic Polypeptide sequence of Variant No. 175 of mature Human GLA
B5: 176 (protein)
chain: B1 chain with S47T, H393S
modifications: Synthetic Polypeptide sequence of Variant No. 176 of mature Human GLA
B6: 177 (protein)
chain: B1 chain with S95D, H393S
modifications: Synthetic Polypeptide sequence of Variant No. 177 of mature Human GLA
B7: 178 (protein)
chain: B1 chain with S95E, H393S
modifications: Synthetic Polypeptide sequence of Variant No. 178 of mature Human GLA
B8: 179 (protein)
chain: B1 chain with S95Q, H393S
modifications: Synthetic Polypeptide sequence of Variant No. 179 of mature Human GLA
B9: 180 (protein)
chain: B1 chain with T369D, H393S
modifications: Synthetic Polypeptide sequence of Variant No. 180 of mature Human GLA
B10: 181 (protein)
chain: B1 chain with T369S, H393S
modifications: Synthetic Polypeptide sequence of Variant No. 181 of mature Human GLA
B11: 182 (protein)
chain: B1 chain with T389S, H393S
modifications: Synthetic Polypeptide sequence of Variant No. 182 of mature Human GLA
B12: 183 (protein)
chain: B1 chain with V133I, H393S
modifications: Synthetic Polypeptide sequence of Variant No. 183 of mature Human GLA
B13: 184 (protein)
chain: B1 chain with V168A, H393S
modifications: Synthetic Polypeptide sequence of Variant No. 184 of mature Human GLA
B14: 185 (protein)
chain: B1 chain with V168L, H393S
modifications: Synthetic Polypeptide sequence of Variant No. 185 of mature Human GLA
B15: 186 (protein)
chain: B1 chain with V345N, H393S
modifications: Synthetic Polypeptide sequence of Variant No. 186 of mature Human GLA
B16: 187 (protein)
chain: B1 chain with V345Y, H393S
modifications: Synthetic Polypeptide sequence of Variant No. 187 of mature Human GLA

assay: HTP-analysis of yeast culture supernatants, no challenge (MUGal hydrolysis); type: biochemical; conditions: activity of the variant/activity of WT GLA (SEQ ID NO: 5), yeast supernatant
Method in brief: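 Activity read as 4-methylumbelliferyl α-D-galactopyranoside hydrolysis: fluorescence (355/448 nm) after sodium carbonate stop, following 30-180 min at 37° C with 2 mM MUGal stock at pH 4.6–4.8. Enzyme source is unchallenged culture supernatant of INVSc1 yeast expressing GLA variants, grown 66-84 h at 30° C.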

| Molecule | Relative Activity of GLA Variants After No Challenge (NC) |
| --- | --- |
| B1 | + (+ = 0.5 to 1.5 relative activity over WT GLA (SEQ ID NO: 5)) |
| B2 | ++ (++ = >1.5 to 2.5 relative activity over WT GLA (SEQ ID NO: 5)) |
| B3 | + (+ = 0.5 to 1.5 relative activity over WT GLA (SEQ ID NO: 5)) |
| B4 | + (+ = 0.5 to 1.5 relative activity over WT GLA (SEQ ID NO: 5)) |
| B5 | + (+ = 0.5 to 1.5 relative activity over WT GLA (SEQ ID NO: 5)) |
| B6 | + (+ = 0.5 to 1.5 relative activity over WT GLA (SEQ ID NO: 5)) |
| B7 | ++ (++ = >1.5 to 2.5 relative activity over WT GLA (SEQ ID NO: 5)) |
| B8 | + (+ = 0.5 to 1.5 relative activity over WT GLA (SEQ ID NO: 5)) |
| B9 | ++ (++ = >1.5 to 2.5 relative activity over WT GLA (SEQ ID NO: 5)) |
| B10 | + (+ = 0.5 to 1.5 relative activity over WT GLA (SEQ ID NO: 5)) |
| B11 | ++ (++ = >1.5 to 2.5 relative activity over WT GLA (SEQ ID NO: 5)) |
| B12 | + (+ = 0.5 to 1.5 relative activity over WT GLA (SEQ ID NO: 5)) |
| B13 | ++ (++ = >1.5 to 2.5 relative activity over WT GLA (SEQ ID NO: 5)) |
| B14 | + (+ = 0.5 to 1.5 relative activity over WT GLA (SEQ ID NO: 5)) |
| B15 | ++ (++ = >1.5 to 2.5 relative activity over WT GLA (SEQ ID NO: 5)) |
| B16 | + (+ = 0.5 to 1.5 relative activity over WT GLA (SEQ ID NO: 5)) |

assay: HTP-analysis of supernatants pretreated with acid (MUGal hydrolysis); type: biochemical; conditions: challenge at pH 4.2; activity of the variant/activity of WT GLA (SEQ ID NO: 5); yeast supernatant
Method in brief: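 GLA variants were secreted from INVSc1 yeast grown 66-84 h at 30° C. in SD-Ura with 2% glucose; supernatants were mixed with McIlvaine buffer pH 3.3-4.3 and held at 37° C. for 1-3 h. Residual activity on MUGal at pH 4.8 was then measured by fluorescence.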

| Molecule | Relative Activity of GLA Variants After Challenge at pH 4.2 |
| --- | --- |
| B1 | + (+ = 0.5 to 1.5 relative activity over WT GLA (SEQ ID NO: 5)) |
| B2 | ++ (++ = >1.5 to 2.5 relative activity over WT GLA (SEQ ID NO: 5)) |
| B3 | + (+ = 0.5 to 1.5 relative activity over WT GLA (SEQ ID NO: 5)) |
| B4 | ++ (++ = >1.5 to 2.5 relative activity over WT GLA (SEQ ID NO: 5)) |
| B5 | + (+ = 0.5 to 1.5 relative activity over WT GLA (SEQ ID NO: 5)) |
| B6 | ++ (++ = >1.5 to 2.5 relative activity over WT GLA (SEQ ID NO: 5)) |
| B7 | +++ (+++ = >2.5 relative activity over WT GLA (SEQ ID NO: 5)) |
| B8 | + (+ = 0.5 to 1.5 relative activity over WT GLA (SEQ ID NO: 5)) |
| B9 | ++ (++ = >1.5 to 2.5 relative activity over WT GLA (SEQ ID NO: 5)) |
| B10 | + (+ = 0.5 to 1.5 relative activity over WT GLA (SEQ ID NO: 5)) |
| B11 | + (+ = 0.5 to 1.5 relative activity over WT GLA (SEQ ID NO: 5)) |
| B12 | + (+ = 0.5 to 1.5 relative activity over WT GLA (SEQ ID NO: 5)) |
| B13 | + (+ = 0.5 to 1.5 relative activity over WT GLA (SEQ ID NO: 5)) |
| B14 | ++ (++ = >1.5 to 2.5 relative activity over WT GLA (SEQ ID NO: 5)) |
| B15 | ++ (++ = >1.5 to 2.5 relative activity over WT GLA (SEQ ID NO: 5)) |
| B16 | + (+ = 0.5 to 1.5 relative activity over WT GLA (SEQ ID NO: 5)) |

assay: HTP-analysis of supernatants pretreated with base (MUGal hydrolysis); type: biochemical; conditions: challenge at pH 7.1; activity of the variant/activity of WT GLA (SEQ ID NO: 5); yeast supernatant
Method in brief: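 Fluorescence of released 4-MU (Ex 355 nm, Em 448 nm) after carbonate quench reports MUGal hydrolysis by GLA variants secreted from INVSc1 yeast. Before the acidic (pH 4.3-4.8) 30-180 min reaction at 37° C, supernatants had been pre-incubated at pH 7.0-9.7 for 1-18 h at 37° C.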

| Molecule | Relative Activity of GLA Variants After Challenge at pH 7.1 |
| --- | --- |
| B1 | + (+ = 0.5 to 1.5 relative activity over WT GLA (SEQ ID NO: 5)) |
| B2 | ++ (++ = >1.5 to 2.5 relative activity over WT GLA (SEQ ID NO: 5)) |
| B3 | + (+ = 0.5 to 1.5 relative activity over WT GLA (SEQ ID NO: 5)) |
| B4 | + (+ = 0.5 to 1.5 relative activity over WT GLA (SEQ ID NO: 5)) |
| B5 | + (+ = 0.5 to 1.5 relative activity over WT GLA (SEQ ID NO: 5)) |
| B6 | + (+ = 0.5 to 1.5 relative activity over WT GLA (SEQ ID NO: 5)) |
| B7 | ++ (++ = >1.5 to 2.5 relative activity over WT GLA (SEQ ID NO: 5)) |
| B8 | + (+ = 0.5 to 1.5 relative activity over WT GLA (SEQ ID NO: 5)) |
| B9 | +++ (+++ = >2.5 relative activity over WT GLA (SEQ ID NO: 5)) |
| B10 | + (+ = 0.5 to 1.5 relative activity over WT GLA (SEQ ID NO: 5)) |
| B11 | + (+ = 0.5 to 1.5 relative activity over WT GLA (SEQ ID NO: 5)) |
| B12 | + (+ = 0.5 to 1.5 relative activity over WT GLA (SEQ ID NO: 5)) |
| B13 | + (+ = 0.5 to 1.5 relative activity over WT GLA (SEQ ID NO: 5)) |
| B14 | + (+ = 0.5 to 1.5 relative activity over WT GLA (SEQ ID NO: 5)) |
| B15 | +++ (+++ = >2.5 relative activity over WT GLA (SEQ ID NO: 5)) |
| B16 | + (+ = 0.5 to 1.5 relative activity over WT GLA (SEQ ID NO: 5)) |

From patent publication US11278600B2, “Human alpha-galactosidase variants” (Codexis, Inc., priority 2014, dated 2022)
